Reference: publication PMC7606108 (Acta Pharmaceutica Sinica. B, 2020)

Target: the molecule itself
Experiment: sucrose density gradient analysis

B1: Acetylcholinesterase, endogenous in macrophages (enzyme, UniProt P21836 32-614, looked up)
chain: EGREDPQLLVRVRGGQLRGIRLKAPGGPVSAFLGIPFAEPPVGSRRFMPPEPKRPWSGVLDATTFQNVCYQYVDTLYPGFEGTEMWNPNRELSEDCLYLNVWTPYPRPASPTPVLIWIYGGGFYSGAASLDVYDGRFLAQVEGAVLVSMNYRVGTFGFLALPGSREAPGNVGLLDQRLALQWVQENIAAFGGDPMSVTLFGESAGAASVGMHILSLPSRSLFHRAVLQSGTPNGPWATVSAGEARRRATLLARLVGCPPGGAGGNDTELIACLRTRPAQDLVDHEWHVLPQESIFRFSFVPVVDGDFLSDTPEALINTGDFQDLQVLVGVVKDEGSYFLVYGVPGFSKDNESLISRAQFLAGVRIGVPQASDLAAEAVVLHYTDWLHPEDPTHLRDAMSAVVGDHNVVCPVAQLAGRLAAQGARVYAYIFEHRASTLTWPLWMGVPHGYEIEFIFGLPLDPSLNYTTEERIFAQRLMKYWTNFARTGDPNDPRDSKSPQWPPYTTAAQQYVSLNLKPLEVRRGLRAQTCAFWNRFLPKLLSATDTLDEAERQWKAEFHRWSSYMVHWKNQFDHYSKQERCSDL
  stoichiometry N: 4
